# Measured values from publication PMC11306785.
# Biological target: FLAG-PPM1G-YLmut (human) (UniProt O15355)
# Experiment: co-IP; anti-FLAG affinity gel (25 μl), 1-2 mg lysate of transiently transfected HEK293H cells, 1 h at 4°C, lysis buffer 50 mM HEPES-KOH pH 7.5, 50 mM KCl, 2 mM MgCl2, 2 mM EGTA, 5% glycerol, 0.5% NP40; partners detected by Western blot; in Figure 3B cells treated with DMSO or PP242 for 2 h
# Chain of UniProt O15355 (O15355 whole entry Y85A/L90A): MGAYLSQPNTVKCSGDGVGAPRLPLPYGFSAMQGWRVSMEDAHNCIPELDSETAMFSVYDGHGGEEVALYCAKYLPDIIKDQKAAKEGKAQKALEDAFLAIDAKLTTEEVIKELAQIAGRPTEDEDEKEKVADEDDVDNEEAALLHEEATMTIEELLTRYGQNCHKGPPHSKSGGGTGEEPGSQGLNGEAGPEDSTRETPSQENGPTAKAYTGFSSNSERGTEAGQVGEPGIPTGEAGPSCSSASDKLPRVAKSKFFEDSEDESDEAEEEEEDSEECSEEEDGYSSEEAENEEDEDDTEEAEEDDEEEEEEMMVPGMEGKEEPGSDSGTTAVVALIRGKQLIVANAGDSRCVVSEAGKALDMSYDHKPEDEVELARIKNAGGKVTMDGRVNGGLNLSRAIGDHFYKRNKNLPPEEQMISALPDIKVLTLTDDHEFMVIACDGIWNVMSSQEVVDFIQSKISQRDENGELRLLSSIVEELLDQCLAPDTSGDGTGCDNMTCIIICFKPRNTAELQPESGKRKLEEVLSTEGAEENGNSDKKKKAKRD
substance,measurement,value
endogenous eIF4E (from UniProt P06730 1-217) (natural protein),percent decrease of binding against wild-type PPM1G,80%
